Source: article doi:10.1101/2022.02.25.482027 (bioRxiv, 2022)
Where a chain is given by its changes, count along the chain named.

Legend:
Assay in all cases: co-sedimentation
FtsA(E14R) = biological target: T1, FtsA(E14R) (E. coli, UniProt P0ABH0 1-420, E14R)
T1 sequence: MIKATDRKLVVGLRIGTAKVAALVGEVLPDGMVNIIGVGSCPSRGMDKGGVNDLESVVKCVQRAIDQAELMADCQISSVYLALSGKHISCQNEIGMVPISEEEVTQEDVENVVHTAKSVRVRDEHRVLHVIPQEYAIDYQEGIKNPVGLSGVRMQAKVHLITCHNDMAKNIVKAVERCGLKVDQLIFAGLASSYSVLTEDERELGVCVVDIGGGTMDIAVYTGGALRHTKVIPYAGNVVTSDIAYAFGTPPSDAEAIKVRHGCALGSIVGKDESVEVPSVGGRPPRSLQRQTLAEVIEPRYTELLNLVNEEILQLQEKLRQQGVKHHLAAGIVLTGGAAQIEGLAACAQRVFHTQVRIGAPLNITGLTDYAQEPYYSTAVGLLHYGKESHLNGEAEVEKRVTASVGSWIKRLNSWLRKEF

FtsA(S84L) = biological target: T2, FtsA(S84L) (E. coli, UniProt P0ABH0 1-420, S84L)
T2 sequence: T1 sequence with R14E, S84L

FtsA(Y375A) = biological target: T3, FtsA(Y375A) (E. coli, UniProt P0ABH0 1-420, Y375A)
T3 sequence: T1 sequence with R14E, Y375A

FtsA(A188V) = biological target: T4, FtsA(A188V) (E. coli, UniProt P0ABH0 1-420, A188V)
T4 sequence: T1 sequence with R14E, A188V

Measured: binding result

B1: FtsZ (natural protein)
chain: MFEPMELTNDAVIKVIGVGGGGGNAVEHMVRERIEGVEFFAVNTDAQALRKTAVGQTIQIGSGITKGLGAGANPEVGRNAADEDRDALRAALEGADMVFIAAGMGGGTGTGAAPVVAEVAKDLGILTVAVVTKPFNFEGKKRMAFAEQGITELSKHVDSLITIPNDKLLKVLGRGISLLDAFGAANDVLKGAVQGIAELITRPGLMNVDFADVRTVMSEMGYAMMGSGVASGEDRAEEAAEMAISSPLLEDIDLSGARGVLVNITAGFDLRLDEFETVGNTIRAFASDNATVVIGTSLDPDMNDELRVTVVATGIGMDKRPEITLVTNKQVQQPVMDRYQQHGMAPLTQEQKPVAKVVNDNAPQTAKEPDYLDIPAFLRKQAD
binds: all assays above
